First the molecules themselves.
B1: Fc-containing molecule with triple mutation K409D, K392D, K370D (other)
chain: EPKSCDKTHTCPPCPAPELLGGPSVFLFPPKPKDTLMISRTPEVTCVVVDVSHEDPEVKFNWYVDGVEVHNAKTKPREEQYNSTYRVVSVLTVLHQDWLNGKEYKCKVSNKALPAPIEKTISKAKGQPREPQVYTLPPSREEMTKNQVSLTCLVDGFYPSDIAVEWESNGQPENNYDTTPPVLDSDGSFFLYSDLTVDKSRWQQGNVFSCSVMHEALHNHYTQKSLSLSPGK
B2: Fc-containing molecule with triple mutation K409D, K392D, K439D (other)
chain: B1 chain with D155K, K224D
B3: Fc-containing molecule with triple mutation D399K, E356K, E357K (Fc fusion)
chain: HMAEVQLQQSGAELVKPGSSVKISCKASGYTFANNFMHWIKQQPGNGLEWIGWIYPGDGDTEYNQKFSGKATLTADKSSSTAYMQLNSLTSEDSAVYFCIRLTEGTTYWGQGVMVTVSSGGGGSGGGGSGGGGSQFVLTQPNSVSTNLGSTVKLSCKRSTGNIGSNYVNWYQQHEGRSPTTMIYRDDKRPDGVPDRFSGSIDGSSNSALLTINNVQTEDEADYFCQSYSRGVSPVFGGGTKLTVLAAAEPKSCDKTHTCPPCPAPELLGGPSVFLFPPKPKDTLMISRTPEVTCVVVDVSHEDPEVKFNWYVDGVEVHNAKTKPREEQYNSTYRVVSVLTVLHQDWLNGKEYKCKVSNKALPAPIEKTISKAKGQPREPQVYTLPPSRKKMTKNQVSLTCLVKGFYPSDIAVEWESNGQPENNYKTTPPVLKSDGSFFLYSKLTVDKSRWQQGNVFSCSVMHEALHNHYTQKSLSLSPGK

Residue numbers refer to the chain shown, from its start. Numbers in names are those of the source.

This data set deals with the molecule itself. Kind of data set: homodimer formation; expressed alone in 293-6E, western blot with goat anti-human Fc HRP. The text has this: FIG. 11. […] Fc molecules were detected using goat-anti-human Fc HRP conjugated at 1:10,000.
DNA was transfected into human embryonic kidney cell line 293-6E using Lipofectamine™ 2000 reagent (Invitrogen). The cell culture supernatant was harvested 3-4 days after transfection and analyzed on SDS-PAGE Gels under non-reduced condition. The gel was then transferred to nitrocellulose membrane and subject to western analysis using peroxidase-conjugated goat anti-human IgG antibody (Jackson ImmunoResearch Laboratories) and results are shown in FIG. 10.
Mutants were made and cells transfected as described in Example 1. When the constructs were co-transfected, a 1:1 ratio of plasmids were used. Heterodimer and homodimers were detected by Western blot using goat-anti-human Fc HRP conjugated antibody. […] Similarly, Fc-containing molecules having triple mutations wherein negative-charged residues were changed to positive-charged residues (D399K,E356K,E357K) were unable to be detected when expressed alone. When co-expressed with an Fc-containing molecule having mutations of opposite charge polarity, however, heterodimers only were detected.
Consider B1, for which the binding result was “no binding”.

Consider B2, for which the binding result is given as “no binding”.

Consider B3, for which the binding result was “no binding”.

Source of the values: patent US20100286374A1 (Amgen, published 2010).
